Measurements reported in patent US20240254227A1 (Alector, published 2024).

T1: murine CD300LB stably expressed on Jurkat cells (mouse, UniProt Q3U497 18-209)
T1 construct: also called muCD300LB; mouse CD300LB
T1 sequence: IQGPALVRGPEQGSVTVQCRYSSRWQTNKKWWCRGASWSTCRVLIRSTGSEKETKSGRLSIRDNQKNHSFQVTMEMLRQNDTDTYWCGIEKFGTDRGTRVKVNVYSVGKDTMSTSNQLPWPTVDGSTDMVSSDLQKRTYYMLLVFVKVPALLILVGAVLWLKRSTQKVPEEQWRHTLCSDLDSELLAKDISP

T2: recombinant human CD300LB overexpressed on Jurkat cells (human, UniProt A8K4G0 18-201)
T2 construct: also called huCD300LB; huCD300LB-expressing Jurkat cells
T2 sequence: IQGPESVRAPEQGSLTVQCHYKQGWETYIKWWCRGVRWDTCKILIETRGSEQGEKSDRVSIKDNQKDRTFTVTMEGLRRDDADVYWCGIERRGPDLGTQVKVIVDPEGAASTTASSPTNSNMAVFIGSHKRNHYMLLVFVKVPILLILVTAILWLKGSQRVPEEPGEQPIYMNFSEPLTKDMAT


Experiments:
[1] = target: T1, murine CD300LB stably expressed on …; experiment: flow cytometry, stable Jurkat cells
[2] = target: T2, recombinant human CD300LB overexpressed …; experiment: flow cytometry, geometric mean (APC-A), Jurkat cells overexpressing huCD300LB
Procedure: Purified anti-CD300LB antibodies of the present disclosure were evaluated for their binding affinity to either Jurkat cells overexpressing recombinant huCD300LB or BaF/3 cells overexpressing recombinant muCD300LB. Binding of anti-CD300LB antibodies to the cells was determined as follows. Cells were harvested, washed, and labeled with propidium iodide for viability discrimination. After washing the cells with PBS, 1×10⁵ cells were aliquoted per well in 96-well U-bottom plates and incubated with 100 μL of purified anti-CD300LB antibody at various concentrations in FACS buffer (PBS+2% FBS). After this primary incubation, the supernatant was removed via centrifugation, the cells washed twice with 150 μL of ice-cold FACS buffer, and then incubated with the appropriate secondary antibody on ice for 30 minutes. Following the secondary antibody incubation, the cells were again washed twice with ice-cold FACS buffer and resuspended in a final volume of 200 L FACS buffer. Flow cytometry analysis was then performed using the FACSCanto system (BD Biosciences).
To determine affinity, antibodies at increasing concentrations were used to stain Jurkat cells overexpressing huCD300LB and geometric MFI values measured by the flow cytometer were analyzed on Prism (Graphpad) software.

binding result [1] | EC50 (read off the curve) [2] [µM] | Binder
no binding (tested: 10 ug/mL) | – | anti-CD300LB antibody CD-02 (antibody, V domains shown) VH: QVQLQQPGAELVRPGSSVKLSCQASGYTFTNYWMHWVRQRPIQGLEWIGNIDPSDSETHYNQKFKDRATLTVDKSSSTAYMQLSSLTSEDSAVYYCARSGVYDDEGGDYWGQGTTLTVSS VL: ENVLTQSPAIMSASPGEKVTMTCSASSSVSYIHWYQQKSSTSPKLWIYDTSKLASGVPGRFSGSGSGNSYSLTISSMETEDVATYYCFQGSGYPLTFGAGTKLELK
– | ~0.02 | anti-CD300LB antibody CD-05 (antibody, V domains shown) VH: QVQLVQSGAEVKKPGASVKVSCKASGYTFSRYYINWVRQAPGQGLEWMGWINPNSGGTNYAQKFQGRVTMTRDTSTSTVYMELSSLRSEDTAVYYCTTDQLRFGKTGPYYGMDVWGQGTTVTVSS VL: DIQMTQSPSSLSASVGDRVTITCRASQNIGTYLNWYQQKPGKAPKLLIYAASSLQSGVPSRFSGSGSGTDFTLTISSLQPEDFATYYCQQSYSDTLTFGGGTKVEIK
